The record followed here is patent US20240076403A1.

The target of test [1] is monkey HER2-His protein (Sino Biological, Cat. No. 90295-C08H) (monkey). The test is described as follows: ELISA, 0.001 nM. For orientation: ELISA stands for enzyme-linked immunosorbent assay.
In test [2] the target is human HER2-His protein (Acro, Cat. No. HE2-H5225) (human) (UniProt P04626). The test is described as follows: ELISA, 0.001 nM.
Test [3] shares this target. The test is described as follows: ELISA, 10 nM.
Test [4] shares this target. As to the kind of experiment: ELISA, 1 nM.
For test [5] the target is unchanged. The test is described as follows: ELISA, 1 nM. The source holds these as a separate data set.
Test [6] addresses human HER2 protein on cells (SK-BR-3 endogenous; CHO-K1-human HER2 recombinant) (human) (UniProt P04626). As to the kind of experiment: FACS on SK-BR-3 cells.
Test [7] shares this target. The test is described as follows: FACS on CHO-K1-human HER2 cells.
Test [8] deals with monkey HER2-His protein (Sino Biological, Cat. No. 90295-C08H) (monkey). As to the kind of experiment: ELISA, 0.1 nM.
Test [9] has as its target human HER2-His protein (Acro, Cat. No. HE2-H5225) (human) (UniProt P04626). As to the kind of experiment: ELISA, 0.1 nM.
Test [10] addresses monkey HER2-His protein (Sino Biological, Cat. No. 90295-C08H) (monkey). The test is described as follows: ELISA, 0.00001 nM.
In test [11] the target is human HER2-His protein (Acro, Cat. No. HE2-H5225) (human) (UniProt P04626). As to the kind of experiment: ELISA, 0.00001 nM.
The target of test [12] is monkey HER2-His protein (Sino Biological, Cat. No. 90295-C08H) (monkey). The test is described as follows: ELISA, 100 nM.
The target of test [13] is human HER2-His protein (Acro, Cat. No. HE2-H5225) (human) (UniProt P04626). As to the kind of experiment: ELISA, 100 nM.
In test [14] the target is monkey HER2-His protein (Sino Biological, Cat. No. 90295-C08H) (monkey). As to the kind of experiment: ELISA, 0.01 nM.
Test [15] deals with human HER2-His protein (Acro, Cat. No. HE2-H5225) (human) (UniProt P04626). The test is described as follows: ELISA, 0.01 nM.
For test [16], the target named is monkey HER2-His protein (Sino Biological, Cat. No. 90295-C08H) (monkey). The test is described as follows: ELISA, 10 nM.
Test [17] concerns the target human HER2-His protein (Acro, Cat. No. HE2-H5225) (human) (UniProt P04626). The test is described as follows: ELISA, 10 nM. The source holds these as a separate data set.
For test [18], the target named is monkey HER2-His protein (Sino Biological, Cat. No. 90295-C08H) (monkey). The test is described as follows: ELISA, 0.0001 nM.
For test [19], the target named is human HER2-His protein (Acro, Cat. No. HE2-H5225) (human) (UniProt P04626). As to the kind of experiment: ELISA, 0.0001 nM.
Test [20] shares this target. As to the kind of experiment: ELISA, 0.001 nM. This is another data set of the same source.
The target in test [21] is monkey HER2-His protein (monkey). As to the kind of experiment: ELISA, coated monkey HER2-His.
The target in test [22] is monkey HER2 on HEK293T-monkey-HER2 cells (monkey). The test is described as follows: FACS on HEK293T-monkey-HER2 cells.

Take hIgG1 (IgG subtype control) (antibody): the OD450 in test [1] amounted to 0.05; in [2], 0.05; in test [3], 0.05; in [4], 0.05; in test [5], 0.06; in test [8] it was 0.05. For the same substance, the OD450 turned out to be 0.05 in [9]; 0.05 in [10]; 0.05 in test [11]; 0.12 in test [12]; 0.06 in test [13]; 0.08 in test [14]. Also, the OD450 in test [15] stood at 0.06; in test [16] it was 0.07; in test [17], 0.06; in [18] it was 0.06; in [19] it was 0.06; in [20], 0.06. The Max MFI in test [6] turned out to be 73; in [7], 71.

In [21], hIgG1 (antibody) had an OD450 nm at 0.0001 nM antibody of 0.06 OD450 nm, an OD450 nm at 0.001 nM antibody of 0.09 OD450 nm, an OD450 nm at 0.01 nM antibody of 0.05 OD450 nm and an OD450 nm at 0.1 nM antibody of 0.06 OD450 nm. In test [21], this substance registered an OD450 nm at 1 nM antibody of 0.05 OD450 nm, an OD450 nm at 10 nM antibody of 0.05 OD450 nm and an OD450 nm at 100 nM antibody of 0.09 OD450 nm. This substance had a Max MFI in test [22] of 127 MFI.
